Broadly, the EC50 is the concentration giving half of the maximal effect. What is called Kd is the constant that tells how readily two partners part at equilibrium.

Settings in all cases: both partners purified
For assay [1], the target named is T1, AR DBD domain protein, labeled with rhodamine B (rhodamine B label).
T1 chain: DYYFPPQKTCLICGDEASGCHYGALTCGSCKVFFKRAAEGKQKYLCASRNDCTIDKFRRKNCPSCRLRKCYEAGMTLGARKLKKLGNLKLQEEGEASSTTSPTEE
In words: fluorescence polarisation; rhodamine B labeled AR DBD, 200 nM of AR DBD dimer in complex with DNA, rising AR pep‐PROTAC concentration; maximum FP taken as 100% dimer, minimum as monomer. (In general: Fluorescence polarisation rises when a labelled molecule tumbles more slowly, as on binding a larger partner.)

The target in assay [2] is T2, MDMX (UniProt O15151 1-490).
T2 construct: MDMX; MDMX is not in the methods' list of proteins made in E. coli
T2 sequence (looked up): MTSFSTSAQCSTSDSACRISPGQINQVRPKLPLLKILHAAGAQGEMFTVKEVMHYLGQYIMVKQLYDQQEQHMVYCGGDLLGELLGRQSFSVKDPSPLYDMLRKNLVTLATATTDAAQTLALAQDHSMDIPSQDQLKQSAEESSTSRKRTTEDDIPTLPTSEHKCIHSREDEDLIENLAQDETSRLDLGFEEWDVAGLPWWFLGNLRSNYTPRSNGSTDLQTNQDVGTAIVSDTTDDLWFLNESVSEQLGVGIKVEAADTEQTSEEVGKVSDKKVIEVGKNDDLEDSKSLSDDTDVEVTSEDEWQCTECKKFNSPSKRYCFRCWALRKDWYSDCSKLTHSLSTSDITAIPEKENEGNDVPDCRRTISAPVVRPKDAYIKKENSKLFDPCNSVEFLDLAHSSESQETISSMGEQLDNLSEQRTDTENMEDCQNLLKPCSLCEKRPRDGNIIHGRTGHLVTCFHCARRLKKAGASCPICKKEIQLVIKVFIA
In words: ITC; protein (around 20 µM, 0.2 ml) in the sample cell, peptide (around 200 µM) in the syringe; 25 °C; first injection 0.4 µl, then 19 injections of 2 µl. (In general: ITC needs no label: the signal is the heat of the interaction.)

The target of assay [3] is T3, MDM2, recombinant from E. coli (UniProt Q00987 1-491).
T3 construct: E3 ligase MDM2; Plasmid bought from GenScript; also called E3 ligase MDM2; pET‐28a (MDM2)
The description is as above.

The target in assay [4] is T4, Androgen receptor splice variant‐7 (AR‐V7), recombinant from E. coli (UniProt P10275-3 1-644).
T4 construct: Plasmid bought from GenScript; also called pET‐28a (AR – V7); pET28‐AR‐V7; not shown: His tag (from the vector pET‐28a)
T4 sequence (looked up): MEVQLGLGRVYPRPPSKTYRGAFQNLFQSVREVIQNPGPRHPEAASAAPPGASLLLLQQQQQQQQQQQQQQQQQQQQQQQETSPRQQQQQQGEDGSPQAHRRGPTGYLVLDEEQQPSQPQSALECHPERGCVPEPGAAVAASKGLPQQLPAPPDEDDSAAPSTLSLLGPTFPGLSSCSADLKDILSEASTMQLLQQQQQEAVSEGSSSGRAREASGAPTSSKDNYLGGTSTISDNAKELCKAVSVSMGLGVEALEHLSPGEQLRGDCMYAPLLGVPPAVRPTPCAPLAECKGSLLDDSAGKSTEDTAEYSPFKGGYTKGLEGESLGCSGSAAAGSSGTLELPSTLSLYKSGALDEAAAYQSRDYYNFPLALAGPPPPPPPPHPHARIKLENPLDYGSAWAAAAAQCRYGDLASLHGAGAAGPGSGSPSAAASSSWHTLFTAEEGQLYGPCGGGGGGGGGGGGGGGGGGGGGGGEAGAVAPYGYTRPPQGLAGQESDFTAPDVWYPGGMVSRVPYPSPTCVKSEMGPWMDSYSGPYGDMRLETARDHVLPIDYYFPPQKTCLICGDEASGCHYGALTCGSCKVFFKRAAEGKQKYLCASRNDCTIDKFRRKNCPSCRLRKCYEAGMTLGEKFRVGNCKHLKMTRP
Described as above.

Where “and” joins values, the source holds several entries; their conditions need not be identical. Equal values may be shown once.

T3 sequence (Q00987 whole entry): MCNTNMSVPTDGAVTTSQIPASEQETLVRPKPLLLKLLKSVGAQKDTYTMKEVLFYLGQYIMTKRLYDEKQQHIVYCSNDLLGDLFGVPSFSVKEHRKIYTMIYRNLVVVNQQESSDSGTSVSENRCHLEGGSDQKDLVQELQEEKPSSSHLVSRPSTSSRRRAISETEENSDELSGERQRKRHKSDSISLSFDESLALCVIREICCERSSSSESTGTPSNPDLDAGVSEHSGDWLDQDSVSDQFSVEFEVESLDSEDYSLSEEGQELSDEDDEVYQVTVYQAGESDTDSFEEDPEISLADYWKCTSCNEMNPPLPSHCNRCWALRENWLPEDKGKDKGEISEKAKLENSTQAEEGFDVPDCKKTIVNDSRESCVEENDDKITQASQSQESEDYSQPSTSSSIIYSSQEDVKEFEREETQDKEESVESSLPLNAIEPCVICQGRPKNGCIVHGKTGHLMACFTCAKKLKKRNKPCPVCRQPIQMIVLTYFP

B1: AR pep‐PROTAC drug (designed peptide PROTAC) (peptide)
peptide: YLCSSNNNRERDKFRRGGSGGTSFEQFWAWLWP
notes: flexible linker; Free peptide in ITC and fluorescence polarisation; also called AR DBD PROTAC; AR DBD PROTAC drug; source: synthetic peptide (solid‐phase peptide synthesis, preparative HPLC)
In assay [1], B1 displayed an EC50 of 1800 nM. Also, the Kd was 1430 nM in assay [2]; 12.2 nM in assay [3]; 49.6 nM and 49.5 nM in assay [4].

Source of the values: PMC9534960, “De Novo Design of an Androgen Receptor DNA Binding Domain‐Targeted peptide PROTAC for Prostate Cancer Therapy” (Advanced Science, 2022).
